Data on 1 protein can be found in article PMC6539346, “Molecular and Structural Basis of the Proteasome α Subunit Assembly Mechanism Mediated by the Proteasome-Assembling Chaperone PAC3-PAC4 Heterodimer” (International Journal of Molecular Sciences, 2019).

This data set concerns the molecule itself. As to the kind of experiment: crystal structure; non-tagged PAC3 homodimer, 8.0 mg/mL in 20 mM Tris-HCl pH 7.5, 150 mM NaCl; crystals from 30% PEG2000 monomethyl ether, 0.1 M potassium thiocyanate, 20 °C; space group P3(1)21, 0.96 Å.

B1: human PAC3 homodimer, non-tagged (natural protein)
chain: MEDTPLVISKQKTEVVCGVPTQVVCTAFSSHILVVVTQFGKMGTLVSLEPSSVASDVSKPVLTTKVLLGQDEPLIHVFAKNLVAFVSQEAGNRAVLLAVAVKDKSMEGLKALREVIRVCQVW
notes: human proteasome-assembling chaperone PAC3; source: E. coli BL21-CodonPlus (DE3)-RIL, purified
In the case of B1, the binding result is “binds”.
